In paper PMC2094072:

Key:
Test in all cases: fluorescence anisotropy
BLM642-1290 R982A = BLM642-1290 R982A (UniProt P54132 642-1290, R982A)
BLM642-1290 H798A = BLM642-1290 H798A (UniProt P54132 642-1290, H798A)
BLM642-1290 R959A = BLM642-1290 R959A (UniProt P54132 642-1290, R959A)
BLM642-1290 R979/982A = BLM642-1290 R979/982A (UniProt P54132 642-1290, R979A;R982A)
BLM642-1290 R979A = BLM642-1290 R979A (UniProt P54132 642-1290, R979A)
BLM642-1290 = BLM642-1290 (UniProt P54132 642-1290)
BLM642-1290 Q975V = BLM642-1290 Q975V (UniProt P54132 642-1290, Q975V)
BLM642-1290 Q975V, sequence (P54132 642-1290 Q975V): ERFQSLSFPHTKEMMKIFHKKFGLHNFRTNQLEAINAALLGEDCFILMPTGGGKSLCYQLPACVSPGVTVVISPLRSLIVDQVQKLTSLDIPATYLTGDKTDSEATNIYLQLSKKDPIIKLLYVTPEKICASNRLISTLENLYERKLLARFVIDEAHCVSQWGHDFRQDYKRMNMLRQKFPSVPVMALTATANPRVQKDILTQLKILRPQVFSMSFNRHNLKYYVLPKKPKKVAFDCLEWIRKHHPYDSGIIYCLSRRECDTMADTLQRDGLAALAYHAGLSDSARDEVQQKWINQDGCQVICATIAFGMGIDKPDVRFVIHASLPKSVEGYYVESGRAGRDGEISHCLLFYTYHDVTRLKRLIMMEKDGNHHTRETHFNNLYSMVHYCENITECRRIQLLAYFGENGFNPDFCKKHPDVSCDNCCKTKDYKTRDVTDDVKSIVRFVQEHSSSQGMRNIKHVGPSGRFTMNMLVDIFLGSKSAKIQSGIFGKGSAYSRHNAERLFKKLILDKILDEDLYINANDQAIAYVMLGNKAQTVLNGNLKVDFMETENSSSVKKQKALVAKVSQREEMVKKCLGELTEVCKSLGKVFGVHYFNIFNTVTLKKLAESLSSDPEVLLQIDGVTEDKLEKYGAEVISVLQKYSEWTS

BLM642-1290 R979A, sequence (P54132 642-1290 R979A): as the sequence (P54132 642-1290 Q975V) above, with V334Q, R338A counted along it
BLM642-1290 H798A, sequence (P54132 642-1290 H798A): as the sequence (P54132 642-1290 Q975V) above, with H157A, V334Q counted along it
BLM642-1290 R959A, sequence (P54132 642-1290 R959A): as the sequence (P54132 642-1290 Q975V) above, with R318A, V334Q counted along it
BLM642-1290 R982A, sequence (P54132 642-1290 R982A): as the sequence (P54132 642-1290 Q975V) above, with V334Q, R341A counted along it
BLM642-1290, sequence (P54132 642-1290): as the sequence (P54132 642-1290 Q975V) above, with V334Q counted along it
BLM642-1290 R979/982A, sequence (P54132 642-1290 R979A/R982A): as the sequence (P54132 642-1290 Q975V) above, with V334Q, R338A, R341A counted along it

B1: oligonucleotide D (21-mer) (ssDNA)
DNA: GGGTTAGGGTTAGGGTTAGGG
BLM642-1290 R982A
  Kd: 2.13 ± 0.32 nM
BLM642-1290 H798A
  Kd: 5.03 ± 0.55 nM
BLM642-1290 R959A
  Kd: 4.15 ± 0.4 nM
BLM642-1290 R979/982A
  Kd: 1.32 ± 0.49 nM
BLM642-1290 R979A
  Kd: 1.91 ± 0.46 nM
BLM642-1290
  Kd: 1.11 ± 0.11 nM
BLM642-1290 Q975V
  Kd: 3.31 ± 0.4 nM
